Data on 23 sequences can be found in a protein production outcome set (Wang et al. 2014).

The nature of this data set: label from the status in PepcDB records.
In the case of “MNRNGLLIALALFAGIGLTFGLFPGLDLWLAGLFYDTAAKTFPMRSMPDLEFARDFAMWVAWAIAAPSIFALVYKMIRPDRPLVMPGRTVAFLLISITLSAGVLTNMTFKSHWGRPRPAAVTEFNGPWQFKAWWDNSGACPKNCSFFSGEGATAYWTFAPAALTPPAVRPYAYAAAFTFGTVTSGLRMAFGGHFFTDVAIAGLVTFLVIWLLYALIYRWAWSRTSDEAIDAALTRAFWPLYRLRLKKWRGQDIGPAPAA”, the protein production result is given as “failed”.
As to “MQYLIVKYSHQIFVTITILVFNIRFFLLWKNPEKPLVGFWKALPHLNDTMLLFTGLWLMKITHFSPFNAPWLGTKILLLFAYIALGMVMMRARPRSTKFYTVYLLAMCCIACIVYLAKTKVLPF”, the protein production result was “failed”.
Take “MNFIVIGAGNIGSGIAQNLLEDGHEVEIADKSRESLNRIRGRNPKIRTREFDVMDRSAYRMLNDYDASVSALPGSIGMQFLKNVAKMGKIVVDVSYMEEDPYDLNGIAQSAGTIIVPDMGFAPGLTNAIVGYFSADLDQIRNVKIYVGGIPEKPVPPLDYTITWSVEG”: the protein production result is “failed”.
The value for “MEFNLRCSESMPDFSRVGMMDEDIPNVRGRGPSQPRGFLRSQIRAPCALMKGLSDIDQEITMAFIKALAVQHQKRSLERRKIRKKINRILRRVIAISRELHTLNSHPGDWIELGISEFDRIPDCMMPILELAGQGVQLFYKSRRVS” was “failed”.
Regarding “MQAVRLFQGYLWHPRALALDLKALLPGEVAGARLLWDEVPPPTPFFEDGTPTHTQRFYQLTLLVLTEEPPEALKPLAEEAAEALGEVLEGLPPEVGWLLLEDLRPL”, the protein production result is “not failed”.
As to “MGEYCEKDFRSLQRCAEMNNIRIFKFLVILYSLLLIASSFVYYYREDIYIRPESYFYLLTLAVGVTFAQIIFFGRNSRSEVKFLIFVEVLLVALSFTLTQQALYKTVLGRDPWFHWILVEEIVKRGSIPPYEQIPIPYVRMPNFHLVIASGIVLTNLSYKWAQVLFAGFPTLILLMLVAFLYSKKLFDDQVGLVSILLVAISDNVLDMVGKNIVPNTLGVALAFLIFYLIYFREYHNLMIKFLSVLVAIALAFMHTVSLTFLIWQIFVISILSLILKDKSAKFYLAHFAFLIVSALFVWGIYSGFYLKSLVIIFKQLFIYGFDIERYEAKLPTTFLDAVIARSGMVLYFAIAGIITFYLLVKTLKRRAFGIKLSTLSSILATISILAGAVSFLTPALSGIAHRFWYYGEVLSSAFVGSVLANLYERKKVIIVFNLIFICALSMLMFKANVANDDNPLVPYYSQRTGWHDSEIEAGKFVISKQGNIPIASDWDYSWNLRYLKTSLMASGALKDINRVTPKTFEEVKNCNCLFVFRKDLLENRLFYLGGRWTQTPHLPLSTLNLVIKELSENEGIIYNNNNILIMHLV”, the protein production entry is “failed”.
Then “MANFEDFLTLDLRIGTVTHAEEFKEARVPAIKLEIDFGELGMKQSSAQITKRYNPEDLIGQQIVAVVNFPPKRVAGFKSEVLVLGGVPEAGDVVLLQPNMELPNGTKIS”, with “not failed”.
The value for “MSKRDYYQVLGVPRTASEDDLKKAYRRCAMKYHPDRNPGDAAAEAAFKECKEAYEVLADTKKRKLYDTHGHAAFEHGVGSGNTPDMNDIFGDIFGNIFGGARASRRGADVGYMVELDLEEAVAGVERQIQIPTLVECTHCHGSGSEDGHVETCGTCRGSGQVRIQRGIFAMQQTCPHCGGRGVIIRNPCKVCNGAGRVEDHKTLSVKIPAGVDNGDRIRLSGEGEQGPDGVPPGDLYVEVRVREHPIFQRDGDDLHCEVPVRISQAALGDIVRVATLDGEAEIRIPAETQSGKLFRLRGKGVRSVRSRTEGDLYCRIVVETPVNLTAEQRKLLEQFEMTFAGEDARKHSPKSATFLDGVKSFWDRMTS” was “failed”; that for “MPIKKPCLKLNLDSLNVVRSEIPQMLSANERLKNNFNILYNQIRQYPAYYFKVASNVPTYSDICQSFSVMYQGFQIVNHSGDVFIHACRENPQSKGDFVGDKFHISIAREQVPLAFQILSGLLFSEDSPIDKWKITDMNRVSQQSRVGIGAQFTLYVKSDQECSQYSALLLHKIRQFIMCLESNLLRSKIAPGEYPASDVRPEDWKYVSYRNELRSDRDGSERQEQMLREEPFYRLMIE” was “failed”.
Then “MKVLETATQVLEWTAHDTQLLVVAALGIALIVVLIAKLKLHPFLALVLGSAFVGLASGVELGKVITNFEDGVGGVLKEVGLLIALGAMLGKLLADSGGANRVVDTLLAKASGNKLVWMITLVAVIIGLPMFFEIGLVLLLPVIVLVTQRSKMKLMRIAIPALAGLSVLHGLVPPHPGPLIAISAVKAELGTTLGLGILVAIPTVIICGPLFSRLAARWVPVDAPAVAGGIDTQHAADLSEVKRQPSFLVTLLTIIFPVVLMLLKALGGIIWPNPETAPAIRIFFDFVGQPLVAMTLAVLLAIVTFGYAVGFTGSRITAKLGESLGPIAAILLIVGAGGGFKQTLIGAGVGDAVKKWAEGANMSVLVLGFIVAVALRLATGSATVATVTAAGIVAPLASSLSPTHAALLALAIGAGSLFLSHVNDAGFWLVKELFGLTVGQTFKTWSVMETLISVVGFGFVMLLSLVL”, with “failed”; and “SKIYDNKNQLIADLGSERRVNAQANDIPTDLVKAIVSIEDHRFFDHRGIDTIRILGAFLRNLQSNSLQGGSTLTQQLIKLTYFSTSTSDQTISRKAQEAWLAIQLEQKATKQEILTYYINKVYMSNGNYGMQTAAQNYYGKDLNNLSLPQLALLAGMPQAPNQYDPYSHP”, with “failed”; and “MEIGRVVGNVWATRKDEKLNGQKFLIVKLLVSKDKEKEGLFVAADNAGAGIGDIVLITKGGAARQSIGNREVPIDAAIVGIVDSIDIEEDLEHHHHHH”, with “not failed”.
For “MAEYEDRYWTSSDGLRLHFRAYEGDISRPPVLCLPGLTRNARDFEDLATRLAGDWRVLCPEMRGRGDSDYAKDPMTYQPMQYLQDLEALLAQEGIERFVAIGTSLGGLLTMLLAAANPARIAAAVLNDVGPEVSPEGLERIRGYVGQGRNFETWMHAARALQESSGDVYPDWDITQWLRYAKRIMVLGSSGRIAFDYDMKIAEPFEAPVGATPQVDMWPLFDALATRPLLVLRGETSDILSAQTAAKMASRPGVELVTLPRIGHAPTLDEPESIAAIGRLLERV”, the protein production entry is “not failed”.
In the case of “MNFVLSDVADAEAEKAIRDPLVAYNLARFGESDKRDLNITIRNDDNSVTGGLVGHTARGWLYVQLLFVPEAMRGQGIAPKLLAMAEEEARKRGCMGAYIDTMNPDALRTYERYGFTKIGSLGPLSSGQSITWLEKRF”, the protein production result was “not failed”.
With “KRPGNILIGTLPVGLDFPTRIVAEIVDAPSLTIEEIMRKAKYYLREGADIIDIGMESGKTNVEFLESVLPEIKEKINAPLSLDTLNPKEIEAGEKEVDLILSVDFGTVEEILPSKPVVLIPTNMKEGKFIEDPIGRAKALEKLKEKALNLGYKGLILDPILEHYPNFSRSLVAFYLYRMRNPQDILLAGVGNITEMMDADSVGLNALLASIAGELKISLLLTTEVSPKATGSVRELKRGIDMVLL”, the protein production result is reported as “failed”.
“MTKAPSLAFLCIQSLKIQLLESDNPIPDLYELPSELLDGIVAHLPALALQKFQTNMPFHCLDSYESGDDCCLITGRKRARNDVLGSSWKLLFKLRWPDFVDRVESPADWQQLYWEKHLQNCVDEAAEVALRPTFSGRICSINVSDNILRYICHEEHIMTCQNCVCKELSFHFQTFGPYLRCLRLLNVLCVTETSELLRTSKLRSLVLRWIRSEKHVEPLCKLLIQSRETLTSLELIHCKLSLSSISAICTSLHEKGIHTTGMQRFCIKTSSIEIDPLAAPSAFVSFLMSVRTLHSLHFGDSNLDRYFARMVFSTLLDSSSNLSSLDLSENNISGWLSTFSCKSVVGSLSSGKSLQSLCKLNLRGNELDRYDAENLAHALLHMPGLESLDLSGNPIEDSGIRSLISYFTKNPDSRLADLNLENCELSCCGVIEFLDTLSMLEKPLKFLSVADNALGSEVAEAVVNSFTISIESLNIMGIGLGPLGFLALGRKLEKVSKKLLSINISKNRGGLETARFLSKLIPLAPKLISIDASYNLMPPEALLMLCDSLRTAKGDLKRLDMTGNSCISHEADHSSLLHEFQHNGEPIFVLPSSSVSHVPYDDDP”: the protein production result is listed as “failed”.
“MMSGEHTLKAVRGSFIDVTRTIDNPEEIASALRFIEDGLLLIKQGKVEWFGEWENGKHQIPDTIRVRDYRGKLIVPGFVDTHIHYPQSEMVGAYGEQLLEWLNKHTFPTERRYEDLEYAREMSAFFIKQLLRNGTTTALVFGTVHPQSVDALFEAASHINMRMIAGKVMMDRNAPDYLLDTAESSYHQSKELIERWHKNGRLLYAITPRFAPTSSPEQMAMAQRLKEEYPDTWVHTHLCENKDEIAWVKSLYPDHDGYLDVYHQYGLTGKNCVFAHCVHLEEKEWDRLSETKSSIAFCPTSNLYLGSGLFNLKKAWQKKVKVGMGTDIGAGTTFNMLQTLNEAYKVLQLQGYRLSAYEAFYLATLGGAKSLGLDDLIGNFLPGKEADFVVMEPTATPLQQLRYDNSVSLVDKLFVMMTLGDDRSIYRTYVDGRLVYERN”: the protein production entry is “failed”.
In the case of “MCNGKVVNKGDDCQSLTFRRRSGWAMIDRSAVMEKTMDSRIQDVLDIYHAMIETEHNSPRELPPGGRDGGQDQRLRAVGQATGQFINILAKSLKSPTILELGTSFGYSGIWLAEAARASGGRLITMEMHDYKSAYARDMAVKAGLAEHVEFKVGDAVQMIGALSSGIDFVLVDLWKDLYVPCLEAFYPKLNPGAIIVADNMLRPGGDDLKRYSDAVRAKPWISSVLLPVGSGLEVSRFD”, the protein production entry is recorded as “failed”.
Then “MVEQRNRGRPAVPDAVVRESIVGAAQRLLSSGGAAAMTMEGVASEAGIAKKTLYRFASGRADLIGLLVESWIAPIFPGFEADPQDAAAALERIVYDIAQAVLSREAVSLFRMLASDADLRNRFLPAYNANGIERSRRELARWLDQQASAGRLPLPIPAERVADLLLSAVIAEPLRQITLGLREPLPAWDIAPRVADAVRLIAPGRER”, with “not failed”.
In the case of “ISRRNQDMLLSVLDLEKMTVDDIMVPRSEIIGIDINDDWKSILRQLSHSPHGRIVLYRDSLDDAISMLRVREAWRLMSEKKEFTKETMLRAADEIYFVPEGTPLSTQLVKFQRNKKKVGLVVNEYGDIQGLVTVEDILEEIVGDFTTSMS”, the protein production result was “not failed”.
Regarding “MANFIEKITYLGTPAIKAGNEHLEMIVVPEWGSNVISLVDKTTNVQLLREPETAESFHDTPTLYGIPILFPPNRISDGTFSFRGRTYHFDINEKDKHNHLHGFLYHEKWNVVTTKQTDEGVIVETEIDLSELPHVQKQFPHHAVVRMTYTIKENTLFKHATVMNKGKEAFPWGIGYHTTFIFPAESSLFSLTADQQWELDERLLPTGKLMDVPYKEALHEGMDLRHKQLDDVFLSSYQKRGGENQAVIYHQHAHISIIYKADEQFKHWVVYNADGKQGYLCPEPYTWVTNAVNLDLPSSLTGLQVLEPGEETTAKSSITIELNHQ”, the protein production result was “not failed”.
For “MPHFHFSWREKFSVFRMAAEPPEKLVGALVGGLRVLRYLSAAPAGVGVTRVARDLQLNSSTCYNFLKTLVYEGLVTFDESTKTYSIALGLVELAKGVLEQGAYVRLIHPHLEEIARAHRVTATLWQRTSNERVVLVDRADNDSSVRVHMSVGQRLPMYIAALGRCMAANAGLDRDQLEQRFNALRWDDKPPFDEYLAGVQEARKNGYATDAGHYVKGVSTASAAVLDAFGKPVMAISAVGFSAQFTGDALEQLGEDLHERAGRITRALSGGRAGADS”, the protein production result is reported as “failed”.
With “MKIQDLLRKDIMILDLQAISKEVAIDEMITKLVEKDIVHDFDVFKKSIMTREEQTSTGLGDGIAMPHSKNIVVDKPAVLFAKSNKGVDYKALDGQPTDLFFMIAAPQGANDTHLAALAELSQYLLKDGFADKLRAAATPEAVIAVFDEASTAKEEV”, the protein production result was “failed”.
